These results are taken from the supplement of paper PMC9170038.

The series has as its system MS2 coat protein. Briefly: apparent KD of MS2 coat protein; designed switch direction (-1 OFF switch, 1 ON switch): -1; higher = weaker reporter binding. The gist of the method: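 Designed RNA switches with common flanks were made on Illumina chips by stalled E. coli RNA polymerase. Titration with SNAP-549-labelled MS2 coat protein doubled from 0.7 or 1.5 nM up to 3 µM. Apparent KD is each design's median over clusters after curve-fitting normalised fluorescence.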

Setting [1] is: Eterna round: R95, input ligand: microRNA oligo, concentration not stated.
The mark [2] stands for this setting: input ligand: microRNA oligo, concentration not stated.
[3] abbreviates: Eterna round: R95, input ligand: FMN 200 uM.
Setting [4] is: Eterna round: R95, input ligand: none.

With “AGCCAAGCAGGAUAUAUCCGGGAUAACAUGAGGAUCACCCAUGUGACCGAUUGAUAUCCUAUAGAAGGGCUUGGGA [Mod of ViennaUCT 23 - Jieux - Exclusion 5] (Eterna round: R97, puzzle: Exclusion 5)”, the “apparent KD of MS2 coat protein” value by setting is: (input ligand: FMN 200 uM) 0.135 µM; (input ligand: none) 0.0435 µM.

With “AGCCAAGCAGGAUAUGCCCGUAAUAACAUGAGGAUCACCCAUGUGACCGAUUUAUGUUCUGCAGAAGGGCUUGGAA [LRO-Excl5-12-mod of Erxesoan mod by Eli Fisker] (Eterna round: R97, puzzle: Exclusion 5)”, the “apparent KD of MS2 coat protein” value runs as follows: (input ligand: FMN 200 uM) 0.0913 µM; (input ligand: none) 0.0248 µM.

For the sequence “AGCCACAGAGGAUAUACAUACAUCCAGUAGCGGAUAUCGCUACAUGAGGAUCACCCAUGUAGAAGGCUGUGGCA [Omei Ex2 BD B22] (Eterna round: R97, puzzle: Exclusion 2)”, the “apparent KD of MS2 coat protein” value (input ligand: FMN 200 uM) was 0.148 µM and the “apparent KD of MS2 coat protein” value (input ligand: none) was determined as 0.611 µM.

Turning to “AGCCCUGCAGGAUAUGCCCGGGAUAACAUGAGGAUCACCCAUGUGACCGAUUGUUAUCCUGCAGAAGGGCAUGGGA [JL-EX5-4.12 ViennaUCT mod] (Eterna round: R97, puzzle: Exclusion 5)”, the “apparent KD of MS2 coat protein” value amounted to 0.172 µM (input ligand: FMN 200 uM) and 0.161 µM (input ligand: none).

Turning to “AGCCCUGCAGGAUAUGUCGAGGAUAACAUGAGGAUCACCCAUGUGACCGAUUGUUAGACUGCAGAAGGGCAUGGGA [salish99_ex5_r4_304] (Eterna round: R97, puzzle: Exclusion 5)”, the “apparent KD of MS2 coat protein” value is, setting by setting: (input ligand: FMN 200 uM) 0.278 µM; (input ligand: none) 0.0706 µM.

For “AGCCUACAUGAGGAUCACCCAUGUCAGGAUAUCUCGCGACGUGUCGGGUUCACGUUGCAGAGAAGGGACUCGGG [Estibera] (puzzle: Exclusion 1)”, under setting [1], the “apparent KD of MS2 coat protein” value is 0.0464 µM.

Consider “AGCGAAAAGACAGGAUAUGAGAAUAGAUAGAGCUCAGAAGGGUCACAUGAGGAUCACCCAUGUAAAGUCUUGAGGCUGCGUGGU [Prohibition 11 - Jieux - Exclusion NG 1] (Eterna round: R96, puzzle: Exclusion NG 1)”, for which the “apparent KD of MS2 coat protein” value came out at 0.184 µM (input ligand: FMN 200 uM), 0.0434 µM under setting [2] and 0.0556 µM (input ligand: none).

Turning to “AGCGAAUAAGUAGGAUAUGAGAAUAGAUAGAGCUCAGAAGGACUACAUGAGGAUCACCCAUGUAAAGUCUUGAGGCUGCGUGGU [Prohibition 14 - Jieux - Exclusion NG 1] (Eterna round: R96, puzzle: Exclusion NG 1)”, the “apparent KD of MS2 coat protein” value by setting is: (input ligand: FMN 200 uM) 0.0108 µM; under setting [2], 0.0113 µM; (input ligand: none) 0.0137 µM.

For “AGCGCCAUCGUGAGAUGGCGUAUUACAUGAGGAUCACCCAUGUAGGAUAUCGAUUGCUUUGCAGUCGAGAAGGGCAUGUCCAAG [JL ENG3 3.80 Mod I] (Eterna round: R96, puzzle: Exclusion NG 3)”, the “apparent KD of MS2 coat protein” value (input ligand: FMN 200 uM) was determined as 0.0454 µM, the “apparent KD of MS2 coat protein” value under setting [2] was found to be 0.0378 µM and the “apparent KD of MS2 coat protein” value (input ligand: none) is 0.035 µM.

As for “AGCUAGUCAGGAUAUUCUAAUAAUUACAUGAGGAUCACCCAUGUGAAGGGACAAGGGUGUGAAGAAGGGACUAGCG [Omei Ex5 A3] (Eterna round: R97, puzzle: Exclusion 5)”, the “apparent KD of MS2 coat protein” value was 0.358 µM (input ligand: FMN 200 uM) and 0.529 µM (input ligand: none).

Regarding “AGCUAGUGCCGAGGAUAUACAUGAGGAUCACCCAUGUAGGCCAGUCGGUUUCUGACUGGCGAGAUGUAGAAGGCGGCGUUGGCA [JL ENG2 1.51] (Eterna round: R96, puzzle: Exclusion NG 2)”, the “apparent KD of MS2 coat protein” value reads like this: (input ligand: FMN 200 uM) 0.049 µM; under setting [2], 0.0126 µM; (input ligand: none) 0.0156 µM.

“AGCUGAGCAGGAUAUACAUGAGGAUCACCCAUGUAUUCUCGAAGGCGCCGCAUAGCAUGUAGAAGGGUUUAGAU [Eternabot (L1) Solution 20] (Eterna round: R97, puzzle: Exclusion 3)”: the “apparent KD of MS2 coat protein” value was 0.017 µM (input ligand: FMN 200 uM) and 0.0232 µM (input ligand: none).

Take “AGCUGUGGCCGAGGAUAUCCACAUGAGGAUCACCCAUGUCGAUACCAGCGUAAGCUGGAUAUAAGGGAGAAGGCGGUCUCAGCA [Eli eng2 - 053] (Eterna round: R96, puzzle: Exclusion NG 2)”: the “apparent KD of MS2 coat protein” value (input ligand: FMN 200 uM) is 0.0062 µM, the “apparent KD of MS2 coat protein” value under setting [2] is 0.00651 µM and the “apparent KD of MS2 coat protein” value (input ligand: none) stood at 0.0105 µM.

As for “AGCUGUGGCCGAGGAUAUCUAAAUUCUCAAAACGAAAUAUAAUCGAACAUGAGGAUCACCCAUGUAGAGAAGGCGGUCUCAGCA [Eli eng2 - 032] (Eterna round: R96, puzzle: Exclusion NG 2)”, the “apparent KD of MS2 coat protein” value under setting [2] amounted to 0.0346 µM.

With “AGCUGUGGCCGAGGAUAUCUAAAUUCUUAAAACGAAAUAUAAUCGAACAUGAGGAUCACCCAUGUAGAGAAGGCGGUCUCAGCA [Eli eng2 - 059] (Eterna round: R96, puzzle: Exclusion NG 2)”, the “apparent KD of MS2 coat protein” value under setting [2] was 0.0134 µM.

As for “AGCUGUGGCCGAGGAUAUCUACCUUCAAUAACCGAAAUAUAAUCGGACAUGAGGAUCACCCAUGUAGAGAAGGCGGUCUCAGCA [Eli eng2 - 086] (Eterna round: R96, puzzle: Exclusion NG 2)”, under setting [2], the “apparent KD of MS2 coat protein” value worked out at 0.0109 µM.

In the case of “AGCUGUGGCCGAGGAUAUCUGUUUCAUAAAACCGAAAUAUAAUCGGACAUGAGGAUCACCCAUGUAGAGAAGGCGGUCUCAGCA [Eli eng2 - 097] (Eterna round: R96, puzzle: Exclusion NG 2)”, under setting [2], the “apparent KD of MS2 coat protein” value was found to be 0.012 µM.

For the sequence “AGGAAUGAAGGAUAUACAUGAGGAUCACCCAUGUAAAAGGAAAGAGGUGAUGGAGAUAGUAGAAGGUCAAGAAG [JR_Exclusion3_Sub004] (puzzle: Exclusion 3)”, the “apparent KD of MS2 coat protein” value is, setting by setting: under setting [3], 0.0942 µM; under setting [1], 0.135 µM; under setting [4], 0.204 µM.

Turning to “AGGAGCAGAGGGAGAUCCAACAUGAGGAUCACCCAUGUCUCAUAAGCUUUUUGCUCAUCUUAUUGUACCUUGGUGCU [Mat - Sensor v3 - turn-off var 1 - JL Mod - D26] (puzzle: Sensor v3, turn-off variant 1)”, the “apparent KD of MS2 coat protein” value by setting is: under setting [3], 0.0357 µM; under setting [1], 0.0143 µM; under setting [4], 0.0379 µM.

In the case of “AGGGAUAAAGGAUAUACAUGAGGAUCACCCAUGUUGAGGAAAGUGAGAUGAGGAGGAAGUAGAAGGUUAGGCGA [JR_Exclu3_Sub085] (puzzle: Exclusion 3)”, the “apparent KD of MS2 coat protein” value came to 0.0372 µM under setting [3], 0.0377 µM under setting [1] and 0.0474 µM under setting [4].

In the case of “AGGGCACGAGGAUAUGUGAAACUGGACUUGAGGAUCACCCAAGUCGUCUUCGUGUCCAAAGCAGAAGGCGUGGCCA [Zaesce] (Eterna round: R97, puzzle: Exclusion 5)”, the “apparent KD of MS2 coat protein” value was 0.0138 µM (input ligand: FMN 200 uM) and 0.0104 µM (input ligand: none).

On to “AGGUGACAUGAGGAUCACCCAUGUAAGGAUAUACGGUUAGUGGAGAGUUGGAGGAGAGGUAGAAGGUACGGAGC [JR_Exclu1_Sub060] (puzzle: Exclusion 1)”, for which the “apparent KD of MS2 coat protein” value under setting [1] is 0.174 µM.

With “AGGUGUUUCGUAGGAUAUGAGGAUCACCCAUAGAAGGAUAUCGAAAGAGAAGGUCUGAGGAUUACCCAGAAGGACGGGACGUCA [pwkr exNG2 2xF5 2xFMN.10] (Eterna round: R96, puzzle: Exclusion NG 2)”, the “apparent KD of MS2 coat protein” value (input ligand: FMN 200 uM) turned out to be 0.57 µM, the “apparent KD of MS2 coat protein” value under setting [2] is 0.103 µM and the “apparent KD of MS2 coat protein” value (input ligand: none) worked out at 0.145 µM.

For “AGUAACAGAGGAUAUACUAUUUUAUGUAUUUAUUAUUUUAAACAUGAGGAUCACCCAUGUAGAAGGCUGAAUGA [JMF 97] (puzzle: Exclusion 2)”, the “apparent KD of MS2 coat protein” value under setting [1] is 0.0211 µM.

Take “AGUAACAGAGGAUAUACUAUUUUAUGUGUUUAUUAUUUUGAACAUGAGGAUCACCCAUGUAGAAGGCUGAAUAA [JMF 91] (puzzle: Exclusion 2)”: under setting [1], the “apparent KD of MS2 coat protein” value was 0.0272 µM.

Regarding “AGUAACCGUCACGAAAGUGAUGGUUACACAAGCAAAUGUACAUGAGGAUCACCCAUGUCCUCAUUUGCUCGUCUUGU [Sensor 3 - 48] (puzzle: Sensor v3, turn-off variant 2)”, the “apparent KD of MS2 coat protein” value reads like this: under setting [3], 0.101 µM; under setting [1], 0.398 µM; under setting [4], 0.121 µM.

On to “AGUAACCGUCACGAAAGUGAUGGUUACACAAGCAAAUGUACAUGAGGAUCACCCAUGUCCUCAUUUGUUCGUCUUAU [Sensor 3 - 47] (Eterna round: R96, puzzle: Sensor v3, turn-off variant 2)”, for which the “apparent KD of MS2 coat protein” value is, setting by setting: (input ligand: FMN 200 uM) 0.101 µM; under setting [2], 0.305 µM; (input ligand: none) 0.104 µM.

“AGUAACCGUCACGAAAGUGAUGGUUACACAAGCAAAUGUACAUGAGGAUCACCCAUGUCCUCAUUUGUUCGUCUUAU [Sensor 3 - 47] (puzzle: Sensor v3, turn-off variant 2)”: the “apparent KD of MS2 coat protein” value reads like this: under setting [3], 0.0835 µM; under setting [1], 0.39 µM; under setting [4], 0.0875 µM.

On to “AGUAACCGUCACGAAAGUGAUGGUUACACAAGCAAAUGUACAUGAGGAUCACCCAUGUCCUCGUUUGCUCGUCUUAU [Sensor 3 - 49] (puzzle: Sensor v3, turn-off variant 2)”, for which the “apparent KD of MS2 coat protein” value under setting [3] was 0.0269 µM, the “apparent KD of MS2 coat protein” value under setting [1] worked out at 0.0967 µM and the “apparent KD of MS2 coat protein” value under setting [4] was 0.0312 µM.

As to “AGUAAGCUAGGAUAUGCUUAGGGAAAGCCUUCCUUCCACAAACUUGAGGAUCACCCAAGUAGAAGGAGCUAAAU [jl-ex2.4.46 ViennaUCT mod] (Eterna round: R97, puzzle: Exclusion 2)”, the “apparent KD of MS2 coat protein” value (input ligand: FMN 200 uM) came to 0.0154 µM and the “apparent KD of MS2 coat protein” value (input ligand: none) was determined as 0.0135 µM.
